doi:10.1101/2021.02.25.432905 (bioRxiv, 2021)

Molecular target: A/California/7/2009 HA (recombinant HA, rHA) (Influenza A virus A/California/07/2009 …, UniProt C3W5X2)

B1: 350-145 (antibody, V domains shown)
VH: EVQLVESGGGLVQPGGSLRLSCSASGFTFSSYSMNWVRQAPGKGLEWLSYISSSSGSKYYADSVKGRFTISRDNAKNLVYLQMSSLRADDAAMYYCARSDYAVFYYGMDVWGQGTTVTVSS
VL: EIVMTQSPATLSVSPGERATLSCRASQSVSSNLAWYQQKPGQAPRLLIYGASTRATGIPARFSGSGSGTEFTLTISSLQSEDFAVYYCQQYYNWPPLTFGGGTKVEIK
B1: binds.
